In assay [1] the target is human CD33 on primary human dendritic cells (human, UniProt P20138 18-364). Kind of assay: cell-based or functional assay.
In assay [2] the target is T1, recombinant human CD33 protein (Sino Biologicals) (human, UniProt P20138 18-259).
T1 construct: Bought protein; also called recombinant CD33
Kind of assay: BLI (ForteBio), antibody on anti-human Fc sensor, CD33 10 nM. As to the method: Affinity parameters of the antibody variants for human CD33 were measured by BioLayer Interferometry in a ForteBio assay according to standard techniques (Estep et al. (2013) MAbs 5(2): 270-8) and were compared to those of the parental antibody (antibody 6C7H8) and the parental humanized antibody (antibody 6C71H5). Briefly, the antibodies were captured on anti-human Fc Biosensors (Pall ForteBio). Recombinant human CD33 (10 nM, Sino Biologicals) was then bound to the captured anti-CD33 surface (200 s association time, 1200 s dissociation time). Local fitting was used to extract association and dissociation rate constants (kₐ and kd, respectively) for each antibody. Apparent affinity constants (KD) were calculated from the ratio kd/kₐ.

Sequence of human CD33 on primary human dendritic cells (P20138 18-364): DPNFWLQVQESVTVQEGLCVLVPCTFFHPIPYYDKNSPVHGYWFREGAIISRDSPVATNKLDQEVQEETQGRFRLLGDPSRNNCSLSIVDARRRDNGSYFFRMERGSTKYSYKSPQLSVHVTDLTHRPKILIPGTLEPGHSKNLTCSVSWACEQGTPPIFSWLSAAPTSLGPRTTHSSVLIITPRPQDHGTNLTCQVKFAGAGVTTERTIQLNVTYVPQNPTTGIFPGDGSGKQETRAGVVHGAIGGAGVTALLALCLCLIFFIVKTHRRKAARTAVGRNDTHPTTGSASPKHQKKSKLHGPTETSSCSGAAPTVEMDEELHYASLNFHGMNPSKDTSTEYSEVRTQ
T1 sequence (P20138 18-259 limits assumed): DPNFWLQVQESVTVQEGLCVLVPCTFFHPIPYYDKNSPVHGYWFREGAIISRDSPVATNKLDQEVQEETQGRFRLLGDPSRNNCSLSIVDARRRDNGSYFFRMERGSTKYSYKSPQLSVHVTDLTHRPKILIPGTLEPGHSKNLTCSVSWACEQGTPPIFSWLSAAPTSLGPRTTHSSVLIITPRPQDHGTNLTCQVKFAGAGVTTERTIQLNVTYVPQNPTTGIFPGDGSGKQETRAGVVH

B1: anti-CD33 antibody 6C7H12 (antibody, V domains shown)
VH: EVQLVESGGGLVQPGGSLRLSCAGSGFTFSNYGMNWVRQAPGKGLEWVAEIRLKSNNYVTNYAASVKGRFTISRDDSKNSVYLQMNSLKTEDTGVYYCTRAGYYVPFAYWGQGTLVTVSS
VL: QLVLTQSPSASASLGASVKLTCTLSSQHSTYTIEWYQQQPEKGPRYLMELKKEGSHSTGDGIPDRFSGSSSGAERYLTISSLQSEDEADYYCGVGDTIKEQFVYVFGGGTKLTVL
notes: VH/VL only
Regarding B1, in assay [1], the “Fold increase in potency compared to 6C7H5” value (shortened to “Fold increase in potency”) was found to be 0.3 fold; the “Maximal reduction in CD33 (% remaining)” value was determined as 27.5 % remaining; the “Receptor downregulation, (EC50) (pM)” value stood at 160 pM. Besides, in assay [2], the Kd was 0.926 nM, the koff stood at 0.000694 s⁻¹ and the kon turned out to be 749000 M⁻¹ s⁻¹.

B2: anti-CD33 antibody 6C7H18 (antibody, V domains shown)
VH: EVQLVESGGGLVQPGGSLRLSCAGSGFTFSNYHMNWVRQAPGKGLEWVAEIRLKSNNYVTNYAASVKGRFTISRDDSKNSVYLQMNSLKTEDTGVYYCTRAGYYVPFAYWGQGTLVTVSS
VL: QLVLTQSPSASASLGASVKLTCTLSSQHSTYTIEWYQQQPEKGPRYLMELKKEGSHSTGDGIPDRFSGSSSGAERYLTISSLQSEDEADYYCGVGDTIKEQFVYVFGGGTKLTVL
notes: VH/VL only
For B2, in assay [1], the “Fold increase in potency” value is 0.3 fold; the “Maximal reduction in CD33 (% remaining)” value stood at 29.2 % remaining; the “Receptor downregulation, (EC50) (pM)” value was determined as 148 pM. Besides, in assay [2], the Kd amounted to 0.609 nM, the koff stood at 0.00064 s⁻¹ and the kon was determined as 1.05e+06 M⁻¹ s⁻¹.

B3: anti-CD33 antibody 6C7H16 (antibody, V domains shown)
VH: EVQLVESGGGLVQPGGSLRLSCAGSGFTFSNYLMNWVRQAPGKGLEWVAEIRLKSNNYVTNYAASVKGRFTISRDDSKNSVYLQMNSLKTEDTGVYYCTRAGYYVPFAYWGQGTLVTVSS
VL: QLVLTQSPSASASLGASVKLTCTLSSQHSTYTIEWYQQQPEKGPRYLMELKKEGSHSTGDGIPDRFSGSSSGAERYLTISSLQSEDEADYYCGVGDTIKEQFVYVFGGGTKLTVL
notes: VH/VL only
On to B3, for which, in assay [1], the “Fold increase in potency” value amounted to 0.1 fold; the “Maximal reduction in CD33 (% remaining)” value came out at 28 % remaining; the “Receptor downregulation, (EC50) (pM)” value came out at 305 pM. In assay [2], the Kd is 0.782 nM, the koff is 0.00102 s⁻¹ and the kon turned out to be 1.3e+06 M⁻¹ s⁻¹.

B4: anti-CD33 antibody 6C7H29 (antibody, V domains shown)
VH: EVQLVESGGGLVQPGGSLRLSCAGSGFTFSAYSMNWVRQAPGKGLEWVAEIRLKSNNYVTNYAASVKGRFTISRDDSKNSVYLQMNSLKTEDTGVYYCTRAGYYVPFAYWGQGTLVTVSS
VL: QLVLTQSPSASASLGASVKLTCTLSSQHSTYTIEWYQQQPEKGPRYLMELKKEGSHSTGDGIPDRFSGSSSGAERYLTISSLQSEDEADYYCGVGDTIKEQFVYVFGGGTKLTVL
notes: VH/VL only
With B4, in assay [1], the “Fold increase in potency” value was determined as 0.3 fold; the “Maximal reduction in CD33 (% remaining)” value was 27.3 % remaining; the “Receptor downregulation, (EC50) (pM)” value stood at 134 pM. In addition, in assay [2], the Kd is 0.991 nM, the koff came to 0.000868 s⁻¹ and the kon stood at 875000 M⁻¹ s⁻¹.

B5: anti-CD33 antibody 6C7H14 (antibody, V domains shown)
VH: EVQLVESGGGLVQPGGSLRLSCAGSGFTFSNYAMNWVRQAPGKGLEWVAEIRLKSNNYVTNYAASVKGRFTISRDDSKNSVYLQMNSLKTEDTGVYYCTRAGYYVPFAYWGQGTLVTVSS
VL: QLVLTQSPSASASLGASVKLTCTLSSQHSTYTIEWYQQQPEKGPRYLMELKKEGSHSTGDGIPDRFSGSSSGAERYLTISSLQSEDEADYYCGVGDTIKEQFVYVFGGGTKLTVL
notes: VH/VL only
Take B5: in assay [1], the “Fold increase in potency” value stood at 0.3 fold; the “Maximal reduction in CD33 (% remaining)” value came out at 28.4 % remaining; the “Receptor downregulation, (EC50) (pM)” value was found to be 164 pM. Besides, in assay [2], the Kd amounted to 0.805 nM, the koff was 0.000798 s⁻¹ and the kon is 991000 M⁻¹ s⁻¹.

B6: anti-CD33 antibody 6C7H26 (antibody, V domains shown)
VH: EVQLVESGGGLVQPGGSLRLSCAGSGFTFSNYIMNWVRQAPGKGLEWVAEIRLKSNNYVTNYAASVKGRFTISRDDSKNSVYLQMNSLKTEDTGVYYCTRAGYYVPFAYWGQGTLVTVSS
VL: QLVLTQSPSASASLGASVKLTCTLSSQHSTYTIEWYQQQPEKGPRYLMELKKEGSHSTGDGIPDRFSGSSSGAERYLTISSLQSEDEADYYCGVGDTIKEQFVYVFGGGTKLTVL
notes: VH/VL only
As to B6, in assay [1], the “Fold increase in potency” value is 0.2 fold; the “Maximal reduction in CD33 (% remaining)” value worked out at 28.3 % remaining; the “Receptor downregulation, (EC50) (pM)” value was found to be 175 pM. In assay [2], the Kd was found to be 0.718 nM, the koff came out at 0.000944 s⁻¹ and the kon was found to be 1.32e+06 M⁻¹ s⁻¹.

B7: anti-CD33 antibody 6C7H25 (antibody, V domains shown)
VH: EVQLVESGGGLVQPGGSLRLSCAGSGFTFSNYEMNWVRQAPGKGLEWVAEIRLKSNNYVTNYAASVKGRFTISRDDSKNSVYLQMNSLKTEDTGVYYCTRAGYYVPFAYWGQGTLVTVSS
VL: QLVLTQSPSASASLGASVKLTCTLSSQHSTYTIEWYQQQPEKGPRYLMELKKEGSHSTGDGIPDRFSGSSSGAERYLTISSLQSEDEADYYCGVGDTIKEQFVYVFGGGTKLTVL
notes: VH/VL only
With B7, in assay [1], the “Fold increase in potency” value was determined as 1.6 fold; the “Maximal reduction in CD33 (% remaining)” value was 30.3 % remaining; the “Receptor downregulation, (EC50) (pM)” value was determined as 27.6 pM. Moreover, in assay [2], the Kd amounted to 0.246 nM, the koff is 0.00013 s⁻¹ and the kon was determined as 529000 M⁻¹ s⁻¹.

B8: anti-CD33 antibody 6C7H28 (antibody, V domains shown)
VH: EVQLVESGGGLVQPGGSLRLSCAGSGFTFSDYSMNWVRQAPGKGLEWVAEIRLKSNNYVTNYAASVKGRFTISRDDSKNSVYLQMNSLKTEDTGVYYCTRAGYYVPFAYWGQGTLVTVSS
VL: QLVLTQSPSASASLGASVKLTCTLSSQHSTYTIEWYQQQPEKGPRYLMELKKEGSHSTGDGIPDRFSGSSSGAERYLTISSLQSEDEADYYCGVGDTIKEQFVYVFGGGTKLTVL
notes: VH/VL only
B8: in assay [1], the “Fold increase in potency” value stood at 0.3 fold; the “Maximal reduction in CD33 (% remaining)” value is 27.6 % remaining; the “Receptor downregulation, (EC50) (pM)” value was found to be 147 pM. Further, in assay [2], the Kd turned out to be 0.76 nM, the koff came out at 0.000859 s⁻¹ and the kon was determined as 1.13e+06 M⁻¹ s⁻¹.

B9: anti-CD33 antibody 6C7H20 (antibody, V domains shown)
VH: EVQLVESGGGLVQPGGSLRLSCAGSGFTFSNYPMNWVRQAPGKGLEWVAEIRLKSNNYVTNYAASVKGRFTISRDDSKNSVYLQMNSLKTEDTGVYYCTRAGYYVPFAYWGQGTLVTVSS
VL: QLVLTQSPSASASLGASVKLTCTLSSQHSTYTIEWYQQQPEKGPRYLMELKKEGSHSTGDGIPDRFSGSSSGAERYLTISSLQSEDEADYYCGVGDTIKEQFVYVFGGGTKLTVL
notes: VH/VL only
For B9, in assay [1], the “Fold increase in potency” value was found to be 1 fold; the “Maximal reduction in CD33 (% remaining)” value amounted to 29 % remaining; the “Receptor downregulation, (EC50) (pM)” value came out at 40.8 pM. Also, in assay [2], the Kd came out at 0.619 nM, the koff was 0.000457 s⁻¹ and the kon stood at 739000 M⁻¹ s⁻¹.

B10: anti-CD33 antibody 6C7H15 (antibody, V domains shown)
VH: EVQLVESGGGLVQPGGSLRLSCAGSGFTFSNYSMNWVRQAPGKGLEWVAEIRLKSNNYVTNYAASVKGRFTISRDDSKNSVYLQMNSLKTEDTGVYYCTRAGYYVPFAYWGQGTLVTVSS
VL: QLVLTQSPSASASLGASVKLTCTLSSQHSTYTIEWYQQQPEKGPRYLMELKKEGSHSTGDGIPDRFSGSSSGAERYLTISSLQSEDEADYYCGVGDTIKEQFVYVFGGGTKLTVL
notes: VH/VL only
As to B10, in assay [1], the “Fold increase in potency” value was 0.2 fold; the “Maximal reduction in CD33 (% remaining)” value came to 27.7 % remaining; the “Receptor downregulation, (EC50) (pM)” value amounted to 252 pM. In addition, in assay [2], the Kd turned out to be 1.03 nM, the koff was 0.000825 s⁻¹ and the kon amounted to 801000 M⁻¹ s⁻¹.

B11: anti-CD33 antibody 6C7H24 (antibody, V domains shown)
VH: EVQLVESGGGLVQPGGSLRLSCAGSGFTFSNYNMNWVRQAPGKGLEWVAEIRLKSNNYVTNYAASVKGRFTISRDDSKNSVYLQMNSLKTEDTGVYYCTRAGYYVPFAYWGQGTLVTVSS
VL: QLVLTQSPSASASLGASVKLTCTLSSQHSTYTIEWYQQQPEKGPRYLMELKKEGSHSTGDGIPDRFSGSSSGAERYLTISSLQSEDEADYYCGVGDTIKEQFVYVFGGGTKLTVL
notes: VH/VL only
Turning to B11, in assay [1], the “Fold increase in potency” value was determined as 0.1 fold; the “Maximal reduction in CD33 (% remaining)” value came out at 22.5 % remaining; the “Receptor downregulation, (EC50) (pM)” value was found to be 319 pM. For the same molecule, in assay [2], the dissociation constant Kd came to 0.552 nM, the koff was found to be 0.000757 s⁻¹ and the kon was found to be 1.37e+06 M⁻¹ s⁻¹.

B12: anti-CD33 antibody 6C7H23 (antibody, V domains shown)
VH: EVQLVESGGGLVQPGGSLRLSCAGSGFTFSNYVMNWVRQAPGKGLEWVAEIRLKSNNYVTNYAASVKGRFTISRDDSKNSVYLQMNSLKTEDTGVYYCTRAGYYVPFAYWGQGTLVTVSS
VL: QLVLTQSPSASASLGASVKLTCTLSSQHSTYTIEWYQQQPEKGPRYLMELKKEGSHSTGDGIPDRFSGSSSGAERYLTISSLQSEDEADYYCGVGDTIKEQFVYVFGGGTKLTVL
notes: VH/VL only
As for B12, in assay [1], the “Fold increase in potency” value was determined as 0.4 fold; the “Maximal reduction in CD33 (% remaining)” value is 26.2 % remaining; the “Receptor downregulation, (EC50) (pM)” value stood at 120 pM. Also, in assay [2], the Kd came to 0.558 nM, the koff turned out to be 0.000691 s⁻¹ and the kon amounted to 1.24e+06 M⁻¹ s⁻¹.

B13: anti-CD33 antibody 6C7H17 (antibody, V domains shown)
VH: EVQLVESGGGLVQPGGSLRLSCAGSGFTFSNYYMNWVRQAPGKGLEWVAEIRLKSNNYVTNYAASVKGRFTISRDDSKNSVYLQMNSLKTEDTGVYYCTRAGYYVPFAYWGQGTLVTVSS
VL: QLVLTQSPSASASLGASVKLTCTLSSQHSTYTIEWYQQQPEKGPRYLMELKKEGSHSTGDGIPDRFSGSSSGAERYLTISSLQSEDEADYYCGVGDTIKEQFVYVFGGGTKLTVL
notes: VH/VL only
With B13, in assay [1], the “Fold increase in potency” value was 0.8 fold; the “Maximal reduction in CD33 (% remaining)” value was 32.1 % remaining; the “Receptor downregulation, (EC50) (pM)” value was 51.9 pM. In assay [2], the Kd came out at 0.853 nM, the koff stood at 0.000523 s⁻¹ and the kon stood at 613000 M⁻¹ s⁻¹.

The values above are taken from US20250270319A1 (Alector, published 2025).
